This is an account of results in paper PMC6895263.

Like-named read-outs stand apart in the source and are kept apart here.

The target in data set [1] is T1, ZBTB24 ZF4-8 (Mus musculus, UniProt Q80X44 375-519).
T1 sequence: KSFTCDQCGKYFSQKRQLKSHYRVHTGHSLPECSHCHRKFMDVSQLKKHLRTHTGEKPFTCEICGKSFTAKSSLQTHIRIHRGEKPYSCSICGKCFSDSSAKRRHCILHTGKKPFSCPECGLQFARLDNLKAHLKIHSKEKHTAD
The data set can be described thus: X-ray crystallography.

The target in data set [2] is T1, ZBTB24 ZF4-8. The data set can be described thus: X-ray crystallography. This is another data set of the same source.
Data set [3] concerns the target T2, GST-ZBTB24 ZF1-8 C407G (Mus musculus, UniProt Q80X44 288-519, C407G).
T2 sequence: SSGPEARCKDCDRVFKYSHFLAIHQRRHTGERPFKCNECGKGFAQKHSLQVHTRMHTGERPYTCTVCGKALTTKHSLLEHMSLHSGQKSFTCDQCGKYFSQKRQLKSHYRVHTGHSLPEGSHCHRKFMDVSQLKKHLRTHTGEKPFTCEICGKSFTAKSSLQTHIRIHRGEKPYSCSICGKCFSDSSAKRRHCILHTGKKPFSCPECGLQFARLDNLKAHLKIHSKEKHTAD
Put plainly: EMSA.

For data set [4], the target named is T3, GST-ZBTB24 ZF1-8 C382Y (Mus musculus, UniProt Q80X44 288-519, C382Y).
T3 sequence: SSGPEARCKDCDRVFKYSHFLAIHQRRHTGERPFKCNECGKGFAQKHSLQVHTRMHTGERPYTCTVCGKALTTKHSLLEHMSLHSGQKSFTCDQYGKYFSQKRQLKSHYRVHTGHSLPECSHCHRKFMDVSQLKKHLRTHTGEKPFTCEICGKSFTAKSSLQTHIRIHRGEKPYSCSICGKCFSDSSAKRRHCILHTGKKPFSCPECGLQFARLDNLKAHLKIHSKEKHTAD
The data set can be described thus: EMSA.

B1: GT oligo (6ML4) (dsDNA)
DNA 1: TGCTTCGTCCAGGACCTGCG
DNA 2: ACGCAGGTCCTGGACGAAGC
For the molecule B1, the binding result in data set [1] is given as “binds”.

B2: TT oligo (6ML3) (dsDNA)
DNA 1: TTTAGCTTCCAGGACCTGCG
DNA 2: ACGCAGGTCCTGGAAGCTAA
On to B2, for which the binding result in data set [2] is “binds”.

B3: EMSA probe with ZBTB24 motif (dsDNA)
DNA 1: TCCACTGCCAGGACCTTT
DNA 2: AAAAGGTCCTGGCAGTGG
As to B3, the binding result in data set [3] and in data set [4] was “no binding” throughout.

B4: TG oligo (6ML2) (dsDNA)
DNA 1: TTTAGCTGCCAGGACCTGCG
DNA 2: ACGCAGGTCCTGGCAGCTAA
For the molecule B4, in data set [2], the binding result is “binds”.
